Holding throughout (test): pull-down
For experiment [1], the target named is T1, GST-CDC6 wild type, full length (human, UniProt Q99741 1-560).
T1 sequence (looked up): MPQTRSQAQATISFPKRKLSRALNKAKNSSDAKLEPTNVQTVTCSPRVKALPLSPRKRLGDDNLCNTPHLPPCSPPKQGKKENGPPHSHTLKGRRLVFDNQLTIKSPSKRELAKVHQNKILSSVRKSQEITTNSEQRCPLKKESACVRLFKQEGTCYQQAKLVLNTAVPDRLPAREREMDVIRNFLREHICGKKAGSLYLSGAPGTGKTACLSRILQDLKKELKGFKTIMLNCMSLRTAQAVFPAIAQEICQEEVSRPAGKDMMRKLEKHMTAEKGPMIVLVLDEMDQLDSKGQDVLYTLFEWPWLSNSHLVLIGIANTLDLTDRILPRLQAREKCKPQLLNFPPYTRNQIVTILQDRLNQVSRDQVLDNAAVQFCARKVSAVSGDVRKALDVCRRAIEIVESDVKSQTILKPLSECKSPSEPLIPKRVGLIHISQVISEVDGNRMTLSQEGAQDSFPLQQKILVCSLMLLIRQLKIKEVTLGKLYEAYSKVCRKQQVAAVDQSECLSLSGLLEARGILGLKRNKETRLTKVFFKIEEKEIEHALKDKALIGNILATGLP

Experiment [2] concerns the target T2, MBP-GFP-ORC1 wild type, full length (human, UniProt Q13415 1-861).
T2 sequence (looked up): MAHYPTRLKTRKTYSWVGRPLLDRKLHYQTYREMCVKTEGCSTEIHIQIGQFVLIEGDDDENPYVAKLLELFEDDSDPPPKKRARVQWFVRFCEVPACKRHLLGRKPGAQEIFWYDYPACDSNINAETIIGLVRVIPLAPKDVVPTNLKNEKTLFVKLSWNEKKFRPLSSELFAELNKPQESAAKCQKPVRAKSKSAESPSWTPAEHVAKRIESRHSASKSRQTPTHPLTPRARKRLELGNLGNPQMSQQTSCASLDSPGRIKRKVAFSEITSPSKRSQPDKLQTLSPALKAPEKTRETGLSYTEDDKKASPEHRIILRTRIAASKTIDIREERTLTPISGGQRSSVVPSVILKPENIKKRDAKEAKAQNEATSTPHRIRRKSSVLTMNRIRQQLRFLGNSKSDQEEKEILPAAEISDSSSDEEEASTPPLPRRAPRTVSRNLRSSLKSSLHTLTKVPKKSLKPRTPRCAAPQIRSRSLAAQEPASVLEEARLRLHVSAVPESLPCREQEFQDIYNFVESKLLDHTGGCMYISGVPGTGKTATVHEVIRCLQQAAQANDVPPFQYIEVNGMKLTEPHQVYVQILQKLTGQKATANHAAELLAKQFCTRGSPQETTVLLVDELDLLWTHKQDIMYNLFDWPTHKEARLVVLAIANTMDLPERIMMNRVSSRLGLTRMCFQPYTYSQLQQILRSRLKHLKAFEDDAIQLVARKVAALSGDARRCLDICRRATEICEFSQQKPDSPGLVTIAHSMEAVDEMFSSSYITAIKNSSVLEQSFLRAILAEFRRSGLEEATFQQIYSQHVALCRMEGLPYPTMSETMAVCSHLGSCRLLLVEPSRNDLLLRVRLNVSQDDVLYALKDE

In another experiment the target is T3, MBP-GFP-ORC1-HIS6 (human, UniProt Q13415 1-861).
T3 sequence (looked up): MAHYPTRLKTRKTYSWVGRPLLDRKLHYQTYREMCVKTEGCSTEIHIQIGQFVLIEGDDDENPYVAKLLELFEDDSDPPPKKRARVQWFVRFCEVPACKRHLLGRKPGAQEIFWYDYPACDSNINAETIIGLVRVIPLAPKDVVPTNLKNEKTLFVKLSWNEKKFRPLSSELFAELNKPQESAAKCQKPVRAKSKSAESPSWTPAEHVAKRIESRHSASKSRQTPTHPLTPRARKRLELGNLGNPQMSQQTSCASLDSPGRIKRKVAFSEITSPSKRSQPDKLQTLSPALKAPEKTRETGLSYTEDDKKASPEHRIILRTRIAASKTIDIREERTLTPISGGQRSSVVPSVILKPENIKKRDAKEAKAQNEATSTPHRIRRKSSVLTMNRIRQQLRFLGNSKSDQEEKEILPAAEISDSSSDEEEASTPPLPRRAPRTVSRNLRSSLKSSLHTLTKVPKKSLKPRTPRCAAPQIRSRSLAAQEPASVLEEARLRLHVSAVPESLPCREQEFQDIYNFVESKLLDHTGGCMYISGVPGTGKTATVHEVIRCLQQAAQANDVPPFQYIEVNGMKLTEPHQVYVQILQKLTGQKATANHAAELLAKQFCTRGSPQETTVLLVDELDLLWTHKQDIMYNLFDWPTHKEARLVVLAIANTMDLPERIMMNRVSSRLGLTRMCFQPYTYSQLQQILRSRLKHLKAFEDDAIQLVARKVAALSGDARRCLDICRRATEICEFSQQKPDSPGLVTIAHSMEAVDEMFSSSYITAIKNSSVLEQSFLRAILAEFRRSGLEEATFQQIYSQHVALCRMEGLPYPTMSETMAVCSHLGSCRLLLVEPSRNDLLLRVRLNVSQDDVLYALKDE

B1: MBP-ORC1 100–250 wild type (domain or fragment, human, UniProt Q13415 100-250, looked up)
chain: RHLLGRKPGAQEIFWYDYPACDSNINAETIIGLVRVIPLAPKDVVPTNLKNEKTLFVKLSWNEKKFRPLSSELFAELNKPQESAAKCQKPVRAKSKSAESPSWTPAEHVAKRIESRHSASKSRQTPTHPLTPRARKRLELGNLGNPQMSQQ
As to B1, the binding result in experiment [1] was “binds”.

B2: MBP-ORC1 100–250 L237A (domain or fragment, human, UniProt Q13415 100-250, looked up)
chain: RHLLGRKPGAQEIFWYDYPACDSNINAETIIGLVRVIPLAPKDVVPTNLKNEKTLFVKLSWNEKKFRPLSSELFAELNKPQESAAKCQKPVRAKSKSAESPSWTPAEHVAKRIESRHSASKSRQTPTHPLTPRARKRAELGNLGNPQMSQQ
B2: the binding result in experiment [1] was “binds”.

B3: MBP-ORC1 180–240 (domain or fragment, human, UniProt Q13415 180-240, looked up)
chain: QESAAKCQKPVRAKSKSAESPSWTPAEHVAKRIESRHSASKSRQTPTHPLTPRARKRLELG
Turning to B3, in experiment [1], the binding result is “binds”.

B4: MBP-ORC1 R720Q (natural protein, human, UniProt Q13415 1-861, looked up)
chain: MAHYPTRLKTRKTYSWVGRPLLDRKLHYQTYREMCVKTEGCSTEIHIQIGQFVLIEGDDDENPYVAKLLELFEDDSDPPPKKRARVQWFVRFCEVPACKRHLLGRKPGAQEIFWYDYPACDSNINAETIIGLVRVIPLAPKDVVPTNLKNEKTLFVKLSWNEKKFRPLSSELFAELNKPQESAAKCQKPVRAKSKSAESPSWTPAEHVAKRIESRHSASKSRQTPTHPLTPRARKRLELGNLGNPQMSQQTSCASLDSPGRIKRKVAFSEITSPSKRSQPDKLQTLSPALKAPEKTRETGLSYTEDDKKASPEHRIILRTRIAASKTIDIREERTLTPISGGQRSSVVPSVILKPENIKKRDAKEAKAQNEATSTPHRIRRKSSVLTMNRIRQQLRFLGNSKSDQEEKEILPAAEISDSSSDEEEASTPPLPRRAPRTVSRNLRSSLKSSLHTLTKVPKKSLKPRTPRCAAPQIRSRSLAAQEPASVLEEARLRLHVSAVPESLPCREQEFQDIYNFVESKLLDHTGGCMYISGVPGTGKTATVHEVIRCLQQAAQANDVPPFQYIEVNGMKLTEPHQVYVQILQKLTGQKATANHAAELLAKQFCTRGSPQETTVLLVDELDLLWTHKQDIMYNLFDWPTHKEARLVVLAIANTMDLPERIMMNRVSSRLGLTRMCFQPYTYSQLQQILRSRLKHLKAFEDDAIQLVARKVAALSGDAQRCLDICRRATEICEFSQQKPDSPGLVTIAHSMEAVDEMFSSSYITAIKNSSVLEQSFLRAILAEFRRSGLEEATFQQIYSQHVALCRMEGLPYPTMSETMAVCSHLGSCRLLLVEPSRNDLLLRVRLNVSQDDVLYALKDE
For the molecule B4, the binding result in experiment [2] is “binds”.

B5: MBP-ORC1 R105Q (natural protein, human, UniProt Q13415 1-861, looked up)
chain: MAHYPTRLKTRKTYSWVGRPLLDRKLHYQTYREMCVKTEGCSTEIHIQIGQFVLIEGDDDENPYVAKLLELFEDDSDPPPKKRARVQWFVRFCEVPACKRHLLGQKPGAQEIFWYDYPACDSNINAETIIGLVRVIPLAPKDVVPTNLKNEKTLFVKLSWNEKKFRPLSSELFAELNKPQESAAKCQKPVRAKSKSAESPSWTPAEHVAKRIESRHSASKSRQTPTHPLTPRARKRLELGNLGNPQMSQQTSCASLDSPGRIKRKVAFSEITSPSKRSQPDKLQTLSPALKAPEKTRETGLSYTEDDKKASPEHRIILRTRIAASKTIDIREERTLTPISGGQRSSVVPSVILKPENIKKRDAKEAKAQNEATSTPHRIRRKSSVLTMNRIRQQLRFLGNSKSDQEEKEILPAAEISDSSSDEEEASTPPLPRRAPRTVSRNLRSSLKSSLHTLTKVPKKSLKPRTPRCAAPQIRSRSLAAQEPASVLEEARLRLHVSAVPESLPCREQEFQDIYNFVESKLLDHTGGCMYISGVPGTGKTATVHEVIRCLQQAAQANDVPPFQYIEVNGMKLTEPHQVYVQILQKLTGQKATANHAAELLAKQFCTRGSPQETTVLLVDELDLLWTHKQDIMYNLFDWPTHKEARLVVLAIANTMDLPERIMMNRVSSRLGLTRMCFQPYTYSQLQQILRSRLKHLKAFEDDAIQLVARKVAALSGDARRCLDICRRATEICEFSQQKPDSPGLVTIAHSMEAVDEMFSSSYITAIKNSSVLEQSFLRAILAEFRRSGLEEATFQQIYSQHVALCRMEGLPYPTMSETMAVCSHLGSCRLLLVEPSRNDLLLRVRLNVSQDDVLYALKDE
B5: in experiment [2], the binding result is reported as “binds”.

B6: MBP-ORC1^235ARA^237 (MBP-ORC1 A-A), full length (natural protein, human, UniProt Q13415 1-861, looked up)
chain: MAHYPTRLKTRKTYSWVGRPLLDRKLHYQTYREMCVKTEGCSTEIHIQIGQFVLIEGDDDENPYVAKLLELFEDDSDPPPKKRARVQWFVRFCEVPACKRHLLGRKPGAQEIFWYDYPACDSNINAETIIGLVRVIPLAPKDVVPTNLKNEKTLFVKLSWNEKKFRPLSSELFAELNKPQESAAKCQKPVRAKSKSAESPSWTPAEHVAKRIESRHSASKSRQTPTHPLTPRARARAELGNLGNPQMSQQTSCASLDSPGRIKRKVAFSEITSPSKRSQPDKLQTLSPALKAPEKTRETGLSYTEDDKKASPEHRIILRTRIAASKTIDIREERTLTPISGGQRSSVVPSVILKPENIKKRDAKEAKAQNEATSTPHRIRRKSSVLTMNRIRQQLRFLGNSKSDQEEKEILPAAEISDSSSDEEEASTPPLPRRAPRTVSRNLRSSLKSSLHTLTKVPKKSLKPRTPRCAAPQIRSRSLAAQEPASVLEEARLRLHVSAVPESLPCREQEFQDIYNFVESKLLDHTGGCMYISGVPGTGKTATVHEVIRCLQQAAQANDVPPFQYIEVNGMKLTEPHQVYVQILQKLTGQKATANHAAELLAKQFCTRGSPQETTVLLVDELDLLWTHKQDIMYNLFDWPTHKEARLVVLAIANTMDLPERIMMNRVSSRLGLTRMCFQPYTYSQLQQILRSRLKHLKAFEDDAIQLVARKVAALSGDARRCLDICRRATEICEFSQQKPDSPGLVTIAHSMEAVDEMFSSSYITAIKNSSVLEQSFLRAILAEFRRSGLEEATFQQIYSQHVALCRMEGLPYPTMSETMAVCSHLGSCRLLLVEPSRNDLLLRVRLNVSQDDVLYALKDE
For B6, in experiment [2], the binding result was “binds”.

B7: GST-CDC6-HIS6 (natural protein, human, UniProt Q99741 1-560, looked up)
chain: MPQTRSQAQATISFPKRKLSRALNKAKNSSDAKLEPTNVQTVTCSPRVKALPLSPRKRLGDDNLCNTPHLPPCSPPKQGKKENGPPHSHTLKGRRLVFDNQLTIKSPSKRELAKVHQNKILSSVRKSQEITTNSEQRCPLKKESACVRLFKQEGTCYQQAKLVLNTAVPDRLPAREREMDVIRNFLREHICGKKAGSLYLSGAPGTGKTACLSRILQDLKKELKGFKTIMLNCMSLRTAQAVFPAIAQEICQEEVSRPAGKDMMRKLEKHMTAEKGPMIVLVLDEMDQLDSKGQDVLYTLFEWPWLSNSHLVLIGIANTLDLTDRILPRLQAREKCKPQLLNFPPYTRNQIVTILQDRLNQVSRDQVLDNAAVQFCARKVSAVSGDVRKALDVCRRAIEIVESDVKSQTILKPLSECKSPSEPLIPKRVGLIHISQVISEVDGNRMTLSQEGAQDSFPLQQKILVCSLMLLIRQLKIKEVTLGKLYEAYSKVCRKQQVAAVDQSECLSLSGLLEARGILGLKRNKETRLTKVFFKIEEKEIEHALKDKALIGNILATGLP
On to B7, for which the binding result with MBP-GFP-ORC1-HIS6 is reported as “binds”.

B8: MBP-CDC6-HIS6 (natural protein, human, UniProt Q99741 1-560, looked up)
chain: MPQTRSQAQATISFPKRKLSRALNKAKNSSDAKLEPTNVQTVTCSPRVKALPLSPRKRLGDDNLCNTPHLPPCSPPKQGKKENGPPHSHTLKGRRLVFDNQLTIKSPSKRELAKVHQNKILSSVRKSQEITTNSEQRCPLKKESACVRLFKQEGTCYQQAKLVLNTAVPDRLPAREREMDVIRNFLREHICGKKAGSLYLSGAPGTGKTACLSRILQDLKKELKGFKTIMLNCMSLRTAQAVFPAIAQEICQEEVSRPAGKDMMRKLEKHMTAEKGPMIVLVLDEMDQLDSKGQDVLYTLFEWPWLSNSHLVLIGIANTLDLTDRILPRLQAREKCKPQLLNFPPYTRNQIVTILQDRLNQVSRDQVLDNAAVQFCARKVSAVSGDVRKALDVCRRAIEIVESDVKSQTILKPLSECKSPSEPLIPKRVGLIHISQVISEVDGNRMTLSQEGAQDSFPLQQKILVCSLMLLIRQLKIKEVTLGKLYEAYSKVCRKQQVAAVDQSECLSLSGLLEARGILGLKRNKETRLTKVFFKIEEKEIEHALKDKALIGNILATGLP
B8: the binding result in the experiment with MBP-GFP-ORC1-HIS6 is given as “binds”.

Source of the values: PMC8106667 (Molecular cell, 2021).
